Assay: protease stability score; higher = more stable; yeast display proteolysis, trypsin and chymotrypsin;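 note: relative to predicted unfolded state with 0 unfolded-like and 1 meaning tenfold more protease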

Q: With “NEEEHKLEEEFERLMHLLLTGDEEKLHRLADPNVKVNVNGKDLHGMELFFHVWWEELKRYDYWHITIRHIDSQGNKADSEVELNLVFNGKEIRIDSRMHLEVVNGRIKRIEIRPI” as the sequence, how does the protease stability score read?
A: The protease stability score was 1.63.

Q: For “SEDERLVRHALNELLHHIETGDEERLIKLIDPNYRISINGQELHGWEEYVRLIREWRIRRFRVKDVDVQGDKANLDVRTHGDIDGQHHDFTIKIIATKINGRWINEEIIVE”, which protease stability score is on record?
A: The protease stability score was 2.4.

Q: Which protease stability score does the source give for “TEEEEKVMEIIEIILHVLKTGDEHLLENLIDPNARSEYGDKELHGREQILRFAWWVSHHIRLKHLHIDSMRVFNGRIEIHGHNIGEINGRESEIHLSLIMIKVDGQWKIHSMRFE” here?
A: Its protease stability score is 1.44.

Q: Which protease stability score does the source give for “DESTHNRKIAVEILEHDNKTGDEKSIFRLFDPHVKIEVDGRDYHGREFFEEFIRKLGWTNIELTIKDVRSIGEFAEMRMEVRYGDWHFHTKVDVKKYNGQWLNREVRIA” here?
A: The protease stability score was 1.44.

Q: For “THDEEVIEIMMDHLREQIHTGDFTSLLEQLDPHARSDVDGREFHGREIVAHVWFHLRVKHVRIDHVDIVNGKIRVDSWIQGRINGRETEYEVILRAHKVDGRWRVHSYEIR”, which protease stability score is on record?
A: Its protease stability score is 1.72.

Q: For “SEEEEIAHRFRKTVVHALLTGDEDRLRELVDPNYRILIGDKELHGWKSMSEFTHEWRIDHVEIERESVFDGVAHHDIRVDTTVNGKRDTRIVRIIIQKVNGKWVIHSMEIH”, which protease stability score is on record?
A: Its protease stability score is 0.53.

Q: For “DEHDEMSQIASEILRTVIETGNENELERMVDPHVKSIVNGRTHHGRETLSELKKKLGWERVHNRIHHVEIVGDKVVVRGSIHWNGRDVRVEFIITKVDGRWIIEEIRFH”, which protease stability score is on record?
A: The protease stability score was 1.07.

Q: With “DEEEKHDTFMTEIFKEIYQTGDEDALATMADPDTRLIIRIGDYTEENHGWKFFIEKLMRLIRKVKNLRYIETRDHVFDGQSHIHGILIINGRKREVEIIIYIFDGRIKSIEIRIV” as the sequence, how does the protease stability score read?
A: Its protease stability score is 1.79.

Q: With “DETENSLRTMLHRLLDSIRTGDFRTVDDLADPHVKIDVGDKHIHGREIYRKIVLQADHVESRFHLHDIHNIGNWAHVDGRLINHEVVDGQKIDLDLRIEIIVTKIDGKWTIESVRFE” as the sequence, how does the protease stability score read?
A: The protease stability score was 1.46.

Q: With “SEDEETIKRMVERWEKEFRTGDEKSYIENADPNYRLEVGDKTSIGRESVAKALDDLLRKRGVEIRDIKVHDVKIVGDFIHMDITFRGTQGDKEFDLKVILISKKVNGRWVPEHVHVH” as the sequence, how does the protease stability score read?
A: The protease stability score was 0.789.

Q: For “SEDDEMLKLFFELVHRFHLTGDETNHLNNMDPHARMNAENWRRHGRHALEQLRTRFDHIDHVHLDHYETFDGRLILHVTVDGQFDGVRDRNTLHIVMKKINGRWIMEELRIQ”, which protease stability score is on record?
A: The protease stability score was 1.23.

Q: For “DEDKDLMHEVTRLLHRNLNTGDEHSLERLFDPHYRYHQGEFHSVGREEWYEWLRRYGVDHVHVNLTESISVGDKMKLEGKLELRYDGRRFEHDLHLIALKIDGRWIFTSSHVR”, which protease stability score is on record?
A: The protease stability score was 0.221.

Q: Which protease stability score does the source give for “DETTELTQTVSQVFLDIWRTGDEDALRHLADPNTRLEVGEKTFHGRERVTEYVSRFKNVTVHLRRVTVQGNKVHIDSEMDFNGRKSDLHVELLVVDGRLKEIHVDIRWL” here?
A: Its protease stability score is 1.84.

Q: For “DERQKELQEFAERLMRVLNTGDWEHTEQLLDPHVRVHFNGRDFHGWEEIVRFWTELRNQFDHFELRVDTVRIQGDKVENDGNAIFRIDGKELRHRITIHVFLINGKIKRVNVEIR”, which protease stability score is on record?
A: Its protease stability score is 1.68.

Q: Which protease stability score does the source give for “SELDEEAEEALRITFEMLITGDWEFLNHYVDPDAKLNIGDKEHHGRETVITFVKEISRKLGIKVIRFRHIEVQVFNGKVDIHIHGVVEWNGRREEFRIIIILHKIDGQWHIREMRVHIR” here?
A: The protease stability score was 2.4.

Q: Which protease stability score does the source give for “DEHTEDTRHLEEFMLRAIKTGDEHILKRLMDPNARNEQGDKHQHGMEIIAEEWSRIKNVKVIFHRVRIQGDKIDVDGELIVNGVTMRVEFYSRKIDGRWVIHSVHFE” here?
A: The protease stability score was 1.17.

Q: Which protease stability score does the source give for “DEDEEEAEERVKEWIKALRTGDEDHILELVDPNDRFIINGVHLHGREFLLRWLRELRVDDVEVKTIKFVDGVAHVDTKMRVTVDGRETELETRLIWKKFDGRWFIESHRIR” here?
A: The protease stability score was 1.62.

Q: For “HEDEELMKELLKRWLNMLETGDWQNLAHYADPHVRLEFDGREIHGRTEVYRVLVEFHDKIKGMTYILKHSFYVGDKIHIKGSIRIGDKEYDTEIHIIIVDGRLKEVRVEHR”, which protease stability score is on record?
A: The protease stability score was 1.98.

Q: With “SDFEEEMKESFRLWVHALMTGDEDLLVELVDPDVRLHVGDKDFHGREHFRRWVHEFILRADHHIIHLRDFDVQGDKLHLHTQVDIKVNGQRHHTRVRIIAIKVDGRWVLTQFDVI” as the sequence, how does the protease stability score read?
A: The protease stability score was 2.27.

Q: With “DEETELDERVIKLLIEALKTGDEHLKERMMDPRVRFLIDGVDLIGREWAFHIARHWRIHIHHIEHKSISRQGDYLRVNGKEDGVEEFDGRRVEKEVSSHRLILKIDGRWVLTHVELR” as the sequence, how does the protease stability score read?
A: The protease stability score was 1.28.
